Data published in the nanobody polyreactivity screen of Harvey et al. (2022).

Assay: yeast display, Sf9 membrane polyspecificity reagent, FACS + sequencing; frameworks hold sequencing errors
How it was run: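 Genes from sorted yeast were amplified by colony PCR, read by MiSeq 2 × 250 sequencing and filtered on CDR length. These cells carried a synthetic nanobody library in Saccharomyces cerevisiae BJ5465 and were sorted by FACS into low and high (top ~1%) gates on anti-HA and streptavidin fluorescence. Polyreactivity is labelled according to the gate of origin.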

Sequence	polyreactivity (PSR sort gate)
QVQLVESGGGLVQAGGSLRLSCAASGFTFPHYAMGRYRQAPGKERELVAAINGGDTRTYYADSVKGRFTSSRDNAKNTVYLQRNSLKPEDTAVYYCAADREAGGTRLSRDYYWGQGTQVTVSS	high polyreactivity
QVQLVESGGGLVQAGGSLRLSCAASGFILRWYAMGWYRQAPGKERELVAAISWSGGSTYYADSVKGRFTISRDNAKNTVYLQMNSLKPEDTAVYYCNAVNYRNKYDYWGQGTQVTVSS	high polyreactivity
QVQLVESGGGLVQAGGSLRLSCAASGLTFWFNAMGWYRQAHGKEREFVAAISLSSTYYADSVKGRFTISRDNAKNTVYLQMNSLKPEDTAVYYCAAELSVSLYDFDYWGQGTQETVSS	high polyreactivity
QVQLVESGGGLVQAGGSLRLSCAASGRIFFLNTMGWYRQAPGKERELVAAITRGGSTYYADSVKGRFTISRDNAKNTVYLQMNSLKPEDTAVYYCAADVYGGIGYDYWGQGTQVTVSS	low polyreactivity
QVQLVESGGGLVQAGGSLRLSCAPSGSIFYRNAMGWYIQAPGKERELVAAISWSAARTYYADSVKGRFTISRDNAKNTVYLQMNSLKPEDTAVYYCATLYSYNYWGQGTQVTVSS	high polyreactivity
QVQLVESGGGLVQAGGSLRLSCAASGFIFLETDKGWYRQAPGKERELVASINSGTNTYYADSLKGRFTISRDNAKNTVYVEMNSLKPEDSAVYYCNADDAYLVTQPYDDNYDYWGQGTQVTVSS	low polyreactivity
QVQLVESGGGLVQAGGSLRLSCAASGSTFHRYVMGWYRQAPGKERELVAVINSTGGSTYYADSVKGRFTISRDNAKNTVYLQMNSLKPEDTAVYYCARVTRRGPGYTTLYSRYDYWGQGTQVTVSS	low polyreactivity
QGQLVESGGGLVQAGVSLRLTCAASGSTFLTNSMGWYRQAPGKEREFVAAISRTGGSTYYADSVKGRFTISRDNAKNTVYLQMNSLKPEDTAVYYCAVYPYGRWLNYWGQGTQVTVSS	high polyreactivity
QVQLVESGGCLVQAGGSLRLSCAASGIIFTYYAMGWYRQAPGKERELVARISSSGGRTYYADSVKGRFTISRDNAKNTVYLQMNSLKPEDTAVYYCAARVFSRPPQPGSPRGYRGFDYWGQGTQVTVSS	high polyreactivity
QAQLVESGGGLVQAGGSLRLSCAASGFTFSFNAMGWYRQAPGKERELVAAISSTGSSTYYADSVKGRFTISRDNAKNTVYLQMNSLKPEDTAVYYCAASRRGYRPRRYDYWGQGTQVTVSS	high polyreactivity
QVQLVESGGGLVQAGGSLRLSCAASGSTFNNAMGWYRQPPGKERELVAAITRSGVRTYYADSVKGRFTISRDNAKNTVYLQMNSLKPEDTAVYYCAAGFQSRRYYAGYEYWGQGTQVTVSS	high polyreactivity
QVQLVESGGGLVQAGVSLRLSCAASGKTVYSYAMGWYRQAPGKKRQLVAGISYIGGRTYYADSVKGRFTISRDNAKNTFYLQMNSLNPEDTAFYYCAAVYWYGRRKYYSWGQGTQVTVSS	high polyreactivity
QVQLQESGGGLEQAGGSLRLSCAASGYISHIGTMGWYRQAPGKEREFVATIVVGSTTNYADSVKRRFTISRDNAKNTVYLQPESGRYRGVLLRGWLLAVGKFTYWGQGTQETVSS	low polyreactivity
QVQLVESGGGLVQAGGSLRLSCAASGSNFRYYAMGWYRQAPGKERELFAAISSNGGSTSYADSVKGRFTISRDNAKNTVYLQMNSLKPEDTAVYYCAATRRWYPTKLYGYWGQGTQVTVSS	high polyreactivity
QVQLVESGGGLVQAGGSLRLSCAASGLIFRPYTMGWYRQAPGKERELVATISGSGASTNYADSVNGRFTISRDNAKNTVYLQMNSLKPEDTAVYYCKGRCYSRMYYWGQGTQVTVSS	high polyreactivity
QDQLVESGGGLVQAGGSLRLSCAASGSTFSVYAMGWYRRAPGKERELVATIRGRGGSTSYADSVKGRFTISRDNAKNTVYLQMNSLKPEDTAVYYCAARVVRDWASKRIILALSNYVYWGQGTHVTVSS	high polyreactivity

Sequence	polyreactivity (PSR sort gate)
QVQLVESGGGLVQAGGSLRLSCAASGSIFDDYVMGWYRQAPGKERELVAAIRSSGGRTYYADSVKGRFTISRDNAKNTVYLQMISLKPEDTAVYYCNAVTKHRQSVPYAYGYWGQGTQVTVSS	high polyreactivity
QVQLVESGGGLVQAGGSLRLSCAASGRTFLPYAMGWYRQAPGKERELVAAIDSSGGSTYYADSVKGRFTISRDNAKNTVYLQMNSLKPEDTAVYYCAADLYSSSYLYDSWGQGTQVTVSS	low polyreactivity
QVQLVESGGGLVQAGGSLRLTCAASGINCVWYAMGWYRQAPGKERELVAAIRSGGITNYADSVKGRFTISRDNAQNTVYLQMNSLKPEDTAVYYCAAPYRTDTGDDYWGQGTQVTLSS	low polyreactivity
QVQLVESGGGLVQAGGSLRLSCAASGSIYWRYAMGWYRQAPGKEMELVASITSGGGSTYYADSVKGRFTISRDNAKNTVYLQMNSLKPEDTAVYYCAAERYYSEAIFRSYDYWGQGTQVTLSS	low polyreactivity
QVQLVESGGGLVQAGGSLRLSCAASGSIFNGYVMGWYTQAPGKERELVAANSRSGGRTYYADSVKGRFTISRDNAKNTVYLQMNSLKPEDTAVYYCAARNYLYAIMGKWLDYNYWGQGTQVTVSS	high polyreactivity
QVQLVESGGGLVQAGGSLRLSCAASGRIYNRNAMGWYRQAPGKERDLVAAITYRGGSTYYADSVKGRFTISRDNAKNTVCLQMNSLKPEDTAVYYCAKDVKQWSVSASYRFGYWGQGTQVTVSS	high polyreactivity
QVQLVESGGGLVHAGCSLRLSCAASGNIFYAYAMGWYRQAPGKERELVAAISWSGDSTYYADSVKGRFTISRDNAKNTVYLQMNSLKPEDTAVYYCAARKVTYHYQWMDYWGQGSQVTVSS	low polyreactivity
QVQLVESGGGLVQAGGSLRLSCAASGSTFVWYGMGWYRQQPGNQREFVAAIYTSGGRTYYADSVKGRFTISRDNAKITVYLQMNSLKPEDTALYYCDTRPYFTYRWYDYWGQGTQVTVSS	high polyreactivity
QVQLVESGGGLVQAGGSLRLSSAASGFIFQKYVMGWSRQAPGKETEMVAVISRSGDSTRYADSVQGRFTISRDNAKNTVYLQMNSLKPEDTAVYYCAAASAKLTGTGYYYWGQGTQVTVSS	high polyreactivity
QVQLVESGGGLVQAGGSLRLSCAASGRIFYYYAMGWSRQAPGKERELVADITWSGGSTYYADSVKVRFTISRDNAKNTVYLQMNSLKTEDTAVYYCNADRLRSTHDYWGQGTQVTVSS	high polyreactivity
QVQLVESGGGLVQAGGSLRLSCAASGFIFSRNAMGWYRHAPGKERELVAAISLRGGSTYYADSVKGRFTISRDNAKNTVYLQMNSLKPEDTAVYYCAAPLFSGYDYWGQGTQVTVSS	low polyreactivity
QVQLVESGGGLVQAGGSLRLSCAASGRIFVYNAMGWYRQAPGKERELVAAITRGGSTYYADSVKGRFTISRDNAKNTVYLQMNSLKPEDTAVYYCASDYQRNDFRWYDYWGQGTQVTVSS	low polyreactivity
QLHLVESGGGLVQAGGSLRLSCAASGRIFGVYAMGWYRQAPGKERELVASITWRGGSTYYADSVKGRFTISRDNAKNTVYLQMNSLKPEDTAVYYCAAAYWYAYEYWGQGTQVTVSS	high polyreactivity
QVQLVESGGGLVQAGGSLRLSCAASGRTFYGYAMGWYRQAPGKERELVATITSGGSTKYADSVKGRFTISRDNAKNTVYLQMNSLKPEDTAVYYCAARTGGHRGYDYWGQGTQVTVSS	low polyreactivity
QVQLVESGGGLVQAGGSLRLSCAASGRIFDTNVRGWSRQAPGKERELVAAISSGGSTYYADSVKGRFTISRDNAKTTVYLQMNSLKPEDTAVYYCAAESRTSRARRYYWGQGTQVTVSS	high polyreactivity
QVQLVESGGGLVQAGGSLRLSCAPSGRTLRVNTMGWYRQAPGKERELVAAISSGGSRTNYADSVKGRFTISRDNAKNTVYLQMNSLKPEDTAVYYCNKYNRFVYSPPSVYWGQGTQVTVSS	high polyreactivity
